Source: a protein production outcome set (Wang et al. 2014)

Test: label from the status in PepcDB records

Sequence	protein production
MSKATTPGDQPKVSEMDFYQLLGVEKMASEAEIKSAYRKLALKYHPDRNPNDAHAQEEFKKVSIAYSVLSDPNKRRQYDVSGPSENQLDFEGFDVSEMGGVGRVFGALFSKLGVPIPTQIVPKVLAQARHICMGQECDVQARQLPPGETVTSSVSKQHAHFYEINIQEEHRKNGVAIICKSSSSKFKLVLFDKEGGVRMIQESGKRGKAGTQADMFFVPYNVANIQEFNAMKYHLEDKETPLAFHYLDSFEMQTATLLETRKHYIAVYGDNWISDVKYSITFLPVEPSAVEQLNEIQDTEKSISIIKKEMLDFQREFTEAKRKYDEAVAKLKVQDDTILKALAHREELYNEVLQKSQEPYNKKVSPSKSSGGLLGWFK	not failed
MSKDAQQISALRRFSVSIISVALLVISGTVGYMYLENMSLLDALYMTVITVATVGFSEVRPLDDVGKIFTMVLIVGGTGIFFFTLTSVAVFFVSGEWKEHWEQQRNERMLRKLNDHFIICGYGRLGGSVAEELRAKAVPFVVIDNMIDNVLRARDEGFLAIKGNAADEEVLADAGLHRAKGLIAAAGNDAENVFIVLTARNLKPNLYIVARADCDGSESKLRRAGAEKVVMLYRSAGKRMASLLTEPELEEYLDELSNANNLNLRIAQYLVGDNSPLVGKSFQEVDLYNNHRINVVGYKLPDGELHTTPRPAEIIQKNGTIIVIGKSDDLEMLCKLAQGETQR	failed
MSKDEIKKPVVLIYCDTIEGTNIYLKKICEGLEEEGVPFQIQQVEKVEDSVEVLAQNASRNSNLGIGIGVLKNGDCALLQRRLPPNLPIQTLRGEKYDPNLYRNIGINAARLAKNLPLVFA	not failed
MSKDSESNLAQRQSQPKAHADLRINSHWIIPIENTTDHNLVSNILIDHCLLIKDGIILAIEPQSSCQIPATETLDLGQQVLMPGWVNAHGHAAMSLFRGLADDLPLMTWLQEHVWPAEAQHVDEHFVKQGTELAIAEMIQSGTTTFADMYFYPQQSGEAALAAGIRAVCFAPVLDFPTNYAQNADEYIRKAIECNDRFNNHPMNEQGLVQIGFGPHAPYTVSDEPLKEITMLSDQLDMPVQIHLHETDFEVSESLETFNKRPTQRLADIGFLNERVSCVHMTQVDDGDIKILQKTGASIIHCPESNLKLASGFCPIAKLSAANIPLAIGTDGAASNNDLDMFSETKTAALLAKGVSQDASAIPAIEALTMATLGGARALGIDDITGSLKPGKAADIQAIDLNTLSSQPVFDPVSHMVYCTKSTQVSHVWVNGRCLLKNGELTTLNEETLINHAKAWASAIRTPIK	not failed
MSKFYSEQFKRDAVALYENNENLSLAAAAAELRVNRASLHQWKKELGTGKRTRMIEAKAQAEAASDAERIRALEKENAKLREERDILRKAAKYFAEETSWLEHHHHHH	failed
MSKGKKIFAIIFGIILVLFLAVVGMGAKLYWDVSKSMDKTYETVERSKKSQVNLNNKEPFSVLLLGIDTGDDGRVEQGRSDTTIVATVNPRDKQTTLVSLARDTYVDIPGQGKQDKLNHAYAFGGASLAMDTVENYLNIPINHYVSINMAGLKELVNAVGGIEVNNNLTFSQDGYDFTIGKISLDGEQALSYSRMRYEDPNGDYGRQERQRKVIEGIVQKVLSLNSVSNYQEILTAVSDNMKTDLSFDDMKKIALDYRSAFGKVKQDQLQGTGFMQDGVSYQRVDEQELTRVQQELKNQLNTK	failed
MSKHVLRLALVGNPNSGKTALFNRLTGSRQKVANYPGVTVERKEGYFRASSGREFVILDLPGAYSFQPASFDEAITRDFCRGFYPGEAPPDVLVCVVDATNLRLHLRFVLELIELGRPVVVALNMVDAAQRRGIRIDRVILEQLLGVPVVETVAVRRHGARALLEQLDTGVIPLPAPVPALAAGDQYHAQVRHILDAAVKMPSRTSRVDDALDRWLLHPVFGLVVLTVVMFLIFQAVYAWAAPLVSLIEGSTTVLGHWVGNRLPDGPLRSLVVDGIITGIGGVLMFLPQILILFAFILALEESGYLPRAAFLLDRLMVLAGLSGRSFIPLLSSFACAVPGIMSTRSIQDPRDRLVTILVAPLMTCSARLPVYTLLIGAFVPRKSLWGPINQQGLVLFGLYMAGIFSALVVSWTVKKWRRGTSEHPLLLELPSYRLPHSRDLLLGLWERAVIFLKRVGGIILALTILLWFLLAFPEPPSGAIGPAIQYSFAGRIGHVIAVFFAPLGFSWQICIALIPGLAAREVAVSSLATVYALSASNEEMAVRALSPLIQDGWSLATALSLLVWYIYAPMCISTLVTIKRETNSWKHMAMTAGYLFALAYLAALATYQVALLLGAG	failed
MSKIGRNDPCPCGSGKKYKQCCFHRATSAAATPDAEMLWRAGNAHLAGGALDMALSCYREAVRLRPGFAQAHYNLGVVFQQKGLLDEAAASFRSAISFNRDYAKAYNNLGYILATQGRLDESADCFNRAIAIEPGFAAAYHNLGTTLRHQGRLDETLAAFRTAHAINPHDPVFHSDLLMMLHYSDMDDETLFREHVRWGEQHAPAAASVPTHQCDRDPGRKLRIGYVSGDFGKHPVGYFLLPFLENHDRSQFEICCYSERGQRQEDDVTARIKGHADLWRRTIGLGDAAVAEMIRADGIDILVDLAGHTAHNRLRVFALKPAPVQVTWLGYPNTTGLRAMDYRITDAVADPPGSADALHTEQLIRLEQGFLCYTPPAGAPPVGEAPCLAGAGVTFGSFNNLAKVSPQVIDAWSAILGRVPGSRLMLKFKGFADETCRRRVSDAFGARGVSPDRLELVSFVENFNDHLALYNRLDLALDTFPYNGTATTCDALWMGVPVLTCCGTRHVARVGASILTSLGLPELITHSPEEYISAAAALAADPARLAALRRDMRPRLAASPLCDPTGFARRMETALRDIWRRWCSA	failed
MSKISDNHDHSALQFMKKKVRENGSRDIRQIYVPAYTQVPLPNNMKKQIFFWLGALIFFILFMLVFGSILLPFVAGIVLAYFLNPIVQLLEKFRIRRVFGTILITLFIVVVFVAALIILIPIISWQIQQFMNDGLPVYINRIQTFFVEHDFDWVRRYFGSDPNELQSNIKGLLGQSSDFITSLLNSLLKSGKSLVNIVSLFVVAPVVAFYMLLDWPRMVTAVDSLIPRDHLETVRSIFHEMDRAIAGFVRGQGTACLILGGYYAIGLTITELNFGLLIGMFIGLISFVPYIGTMSGFLLSVGVAWVQFYPNNWGWIIVVMVIFLIGQFIEGYILQPKLVGSSVGLHPVWLMFALFAFSSLFGFTGMLIAVPAAAAVGVLVRFALHTYLNSQMYSRSGNSERLE	failed
MSKKINELLRYCEENYIERGSLELALRCAVSICKANPDAPQAYAHVAAYRILLTAANYRTVTGEPDWYAVLGINKRGSSKSVVNAIDRRCEEIIEVLDGETGVSKAVSRVYDLVRLGVSELMDEDRRRAYDLRSGFSIIN	failed
MSKKKSAAMTLKDFHGGSIPSDLPLPSAPGVTPKVIPDRPVFDRAPWGNSIGRPDQRARPSSSHAIRNLDDKSLFLPHNVNIGRNFSEDERKPLDGHSAPRRVVSDDVFRFANNRLEMKADSVLAGRHSGWAAGPLTHSGTGNIENSVSGNHSNIWNGRKEVSVANNEPGQSPWTKQPAVSNLVHTSALDQVSSGGWQSKLLVPSQMGFDVVKHSEIDTRVYKTNSPVISQGVEPHGTHVERALIAEDGIQRGKKLSREYEKIPGPTYVDAKEAKIVANTNDKPHPKYSDVKPAGHLVQPTAPSEVVERPKLNLLPRTKPLESVEKPVNDEKLENSASVLIQRENATQKSFNNSKSGLSTDEIPNQPAERPKLNLKPVAQLLEQPEVKTEKDRSAVFGGARPRELVLKERGIDEPEHHKLDQPTDRMVLKPIERVPEHASQRPVSSPRDMRTRKFDQKDGRNVSDIARSETQRRNWRENENKSARQQQQTQEKTRHPSPETWRKPVPQKLDSPNGTGIRHGKAASALELAQAYSPFSDPKSGIGSSNSFNKSRNNQTQQQPFSRLVGSTTTGRQINGY	failed
MSKKLVLLIISILCFTALTGCWIVRSDLSGDIIIGDGHGGTSHSIIKYNPATNKFESVEPGLYYEVEYNDDKSKILCYRFLENSEVRRFEICEYDIKSKKFGEPIFIPGDSQKFKGSVKYVPNSDRISFVLDYELHIYDRSSGTLTKLFEVAFNSYSWDNTGKKLLYGDYDENIYIYDMESNEKRKILTGICPVYSNSNEYIAYIGIDQRLTVYNVNTGKKWRTVPVDDSARYIFSPDDKYILLGTEYADLMSFPHYTLYILDYKTGKKKRLFGGEGNVPSLDWK	failed
MSKLIFSVLISVYYNESISYFKKSLDSILYQTLLPAEVVLVKDGILTDDLNCIVKEYSQKYPILKVISLPVNQGLGKALNEGLKHCSYDLVARMDTDDIAKPDRFEKQIRVFQEHPELDVVGAWIDEFEETTSNIISTRKLPEVHDDICQFAKKRNPENHPVIMFRKQAVLAAGGYQHFPLFEDYYLWIRMLQNGAKFYNIQESLLYFRFSPAMFKRRGGLKYVTTELRFQNQLRNLGFITSSEYLYNVFIRVITRMMPNTLRAILYKKALRK	failed
MSKLSLIQQLKQQKLSVGILSANWLQLNEEVTTLLENQINVLHFDIADGQFSSLFTVGAIGIKYFPTHCFKDVHLMVRNQLEVAKAVVANGANLVTLQLEQYHDFALTIEWLAKQKTTYANQVYPVLIGACLCPETPISELEPYLDQIDVIQLLTLDPRNGTKYPSELILDRVIQVEKRLGNRRVEKLINIDGSMTLELAKYFKQGTHQIDWLVSGSALFSGELKTNLKVWKSSIM	not failed
MSKLSLKIGTYFLILALCIETIAFVSFYKSLSKMRIVEETDALLEKGNRYSKKIKSRERRDEYYKEMKHAEHNKNPKRPVYPEFDITNEAAHLVESESISNSDIAIIITDHNGKIISTSEPVTKDMQKQLTCKTETVPDGGLVVERNWKKSKFITTVSPLNTTKFQGKLYMLLKTSFLENMLLKLMNQFLIISVLTIILTTISVFVFSRVITEPLVKMKRATEKMSKLNKPIQLGIKRNDELGSLAKTIEDLSSELTYMKKERNEFLASVAHELLTPLTYMKGYAKVAKRDSLTKEEREEYLQIIEDETDSVTDLVQDLFMLVQLEQHQFVIKKQKVLLQPFLERMVEKTKTTLTNKQMQLHVYCKDDLEVCIDERRMEQVMLNLLHNAYQHSPENTAITIRVLMETDSFTISVQDEGEGIPEEDIPHIFDRFYRVDKSRTRATGGKGIGLAVAKEIVELHNGSILVTSQLGAGTNFIIELPFE	failed
MSKPEFIARQGRKPTGWLGHIVARVMARETRPENDRALSFLDLADGDSLIDIGCGHGETLFQADRIVRLSGSVGVDFSEVMLKRARARNRDAVWDTRMAFHCADTAALPFPDKRFGKALSVHTIYFWPNPAAHLAEAFRVLRRGGRFLFCYRSTADRRAVEEFPDTVYRFPSVQEVEEKLKLVGFLGPETTTEDIKGLEHHHHHH	failed
MSKPKIAIIVGSTRAARFADVPTQWIAKIAKSHADIDVEVVDLRDFPLPFFDEVASSAWVPSTNEVAQRWQKKVAEFDGFIFTAAEYNHGPTAVLKNAIDYAANEWNKKPAGFVGYGSVGGARAVEQLRLHAVELQMAPVKSAVHIAWGDFLAVRQGEKKLEDLDHLNQAASALVNDVAWWAKALKKARAADVVDEEIKAA	failed
MSKRILFIVGSFSEGSFNRQLAKKAETIIGDRAQVSYLSYDRVPFFNQDLETSVHPEVAHAREEVQEADAIWIFSPVYNYAIPGPVKNLLDWLSRSLDLSDPTGPSVLQDKIVTVSSVANGASPEEVFEDYRSLLPFIRMHLVDQLTGVPINSEAWSTGILKVSAEKLAELSAQADALLSAVENLEHHHHHH	not failed
MSKTERDKIKVEMEIDPHLSWQEKLAVEEQEKLSPRLVYEIIRRDGVEELSRPTSTLIFSGITAGLVMSFSFVFKAVIASYLPIDAVWTDLITNIGYTIGFLIAILGHLQLFTENTITTVIPLFKPFSLDKLKAVARLWSIVILTNIFGTALSSLFFLTTDLFSPEVDHALDEIAHHVASFTAWENFLKGVLSGLLIAALVWMLPSVNNKILLIFMITYLIGLGDFTHVVVGSVEVAYLVWQGQTSLSEYFFQFLVPTTLGNIIGGTGIFTLLIYGQVNQELEE	failed
